{
  "source": "paper PMC11348067",
  "origin": "cited, not measured here",
  "molecular_target": "Mucin 1 (human) (UniProt P15941)",
  "sequence (P15941 24-1158)": "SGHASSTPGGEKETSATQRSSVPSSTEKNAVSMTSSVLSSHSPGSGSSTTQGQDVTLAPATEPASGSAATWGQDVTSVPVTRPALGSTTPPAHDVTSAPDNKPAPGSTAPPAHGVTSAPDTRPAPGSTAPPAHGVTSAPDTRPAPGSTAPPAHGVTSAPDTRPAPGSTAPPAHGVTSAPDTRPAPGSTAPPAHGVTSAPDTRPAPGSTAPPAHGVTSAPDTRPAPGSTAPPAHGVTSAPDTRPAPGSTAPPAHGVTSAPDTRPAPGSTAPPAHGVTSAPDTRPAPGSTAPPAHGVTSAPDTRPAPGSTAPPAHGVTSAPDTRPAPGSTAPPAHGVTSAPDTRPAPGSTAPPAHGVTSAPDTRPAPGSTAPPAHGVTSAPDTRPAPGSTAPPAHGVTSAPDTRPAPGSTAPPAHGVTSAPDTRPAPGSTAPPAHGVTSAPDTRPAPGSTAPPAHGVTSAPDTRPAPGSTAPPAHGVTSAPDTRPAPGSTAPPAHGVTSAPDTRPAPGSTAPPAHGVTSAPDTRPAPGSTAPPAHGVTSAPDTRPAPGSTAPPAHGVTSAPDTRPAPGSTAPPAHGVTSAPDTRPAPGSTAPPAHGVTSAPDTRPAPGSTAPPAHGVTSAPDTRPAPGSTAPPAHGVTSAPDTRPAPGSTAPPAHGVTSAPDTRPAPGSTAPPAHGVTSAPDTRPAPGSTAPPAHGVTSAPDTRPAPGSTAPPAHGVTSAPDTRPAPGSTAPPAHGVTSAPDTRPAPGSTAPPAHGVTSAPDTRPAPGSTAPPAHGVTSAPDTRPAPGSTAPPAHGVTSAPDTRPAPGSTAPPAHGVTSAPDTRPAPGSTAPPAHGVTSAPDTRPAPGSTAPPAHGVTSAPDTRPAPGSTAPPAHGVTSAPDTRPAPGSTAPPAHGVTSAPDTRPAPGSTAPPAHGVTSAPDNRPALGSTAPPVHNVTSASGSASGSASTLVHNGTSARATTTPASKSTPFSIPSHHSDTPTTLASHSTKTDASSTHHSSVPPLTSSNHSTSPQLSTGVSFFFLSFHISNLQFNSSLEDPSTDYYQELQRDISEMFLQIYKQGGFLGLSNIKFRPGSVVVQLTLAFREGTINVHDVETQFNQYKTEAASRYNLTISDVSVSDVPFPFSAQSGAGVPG",
  "test": "not stated (cited)",
  "settings": "aptamer/padlock annealed in water with 80 mM NaCl (2 uL of 800 mM in 20 uL), then 40 uL protein added, 30 min; pH and binding temperature not stated; ligation …",
  "data": [
    {"sequence": "GCAGTTGATCCTTTGGATACCCTGGAGTGA [Mucin 1 aptamer]", "values": [
      {"measurement": "Kd", "result": 0.135, "unit": "nM"}
    ]}
  ]
}
